# Test results: publication PMC7321188
# Columns and labels:
# Conditions in all cases: remark: other sources report otherwise
# [1] = target: G2019S LRRK2-GFP (Parkinson's disease mutant of Leucine-Rich Repeat Kinase 2, GFP fusion) (UniProt Q5S007); test: fluorescence fluctuation spectroscopy (number and brightness) by TIRF microscopy; TIRF, near the plasma membrane of live differentiated SH-SY5Y cells; brightness normalised to monomeric GFP
# [2] = target: G2019S LRRK2-GFP (Parkinson's disease mutant of Leucine-Rich Repeat Kinase 2, GFP fusion) (UniProt Q5S007); test: fluorescence fluctuation spectroscopy (number and brightness + photon counting histogram); two-photon confocal, cytosol of live differentiated SH-SY5Y cells at 37 °C; brightness normalised to monomeric GFP; LRRK2-GFP below 300 nM
# [3] = target: WT LRRK2-GFP (Leucine-Rich Repeat Kinase 2, wild type, GFP fusion) (UniProt Q5S007); test: fluorescence fluctuation spectroscopy (number and brightness) by TIRF microscopy; TIRF, near the plasma membrane of live differentiated SH-SY5Y cells; brightness normalised to monomeric GFP
normalized brightness (sample over the monomer control) [1],normalized brightness (sample over the monomer control) [2],normalized brightness (sample over the monomer control) [3],Substance
2.5,2.1,–,"G2019S LRRK2-GFP (Parkinson's disease mutant of Leucine-Rich Repeat Kinase 2, GFP fusion), Q5S007 1-2527"
–,–,2.5,"WT LRRK2-GFP (Leucine-Rich Repeat Kinase 2, wild type, GFP fusion), Q5S007 1-2527"
